Source: patent US6682891B2, “Methods of identifying nucleic acid sequences encoding plant riboflavin synthase enzymes” (E. I. du Pont de Nemours and Company, priority 1997, dated 2004)

Tests used:
[1] = test system: purified recombinant spinach RS; assay: Riboflavin synthase assay (riboflavin formation from DMRL, 470 nm); assay type: biochemical, spinach (Spinacea oleracea); settings: 25° C., based on protomer
Procedure: Riboflavin synthase assays were run using 1-mL reaction mixtures containing 0.1 mM DMRL in 50 mM Tris-Cl (pH 7.5) at 25° C. Reactions were initiated by the addition of purified recombinant spinach RS and initial rates of the reactions were measured continuously at 470 nm. A molar extinction coefficient (ε) of 9500 at 470 nm was used to calculate the formation of riboflavin (Plaut, G. W. E. and Harvey, R. A., Methods in Enzymology (McCormick, D. B. and Wright L. D., eds.) vol. 18, part B, pp. 515-538, Academic Press, N.Y. (1971)).

[2] = target: T1, S. cerevisiae RS (Saccharomyces cerevisiae, UniProt P38145); settings: 37° C.; cited from earlier work
T1 sequence (P38145 1-238): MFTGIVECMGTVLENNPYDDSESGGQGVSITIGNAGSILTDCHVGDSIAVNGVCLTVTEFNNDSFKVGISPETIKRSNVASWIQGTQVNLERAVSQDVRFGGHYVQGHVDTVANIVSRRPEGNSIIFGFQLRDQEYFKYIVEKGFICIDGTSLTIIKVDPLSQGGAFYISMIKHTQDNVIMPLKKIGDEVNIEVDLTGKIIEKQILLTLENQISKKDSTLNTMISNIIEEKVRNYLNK

[3] = target: T2, B. subtilis RS (Bacillus subtilis, UniProt P16440); settings: 37° C.; cited from earlier work
T2 sequence (P16440 whole entry, looked up): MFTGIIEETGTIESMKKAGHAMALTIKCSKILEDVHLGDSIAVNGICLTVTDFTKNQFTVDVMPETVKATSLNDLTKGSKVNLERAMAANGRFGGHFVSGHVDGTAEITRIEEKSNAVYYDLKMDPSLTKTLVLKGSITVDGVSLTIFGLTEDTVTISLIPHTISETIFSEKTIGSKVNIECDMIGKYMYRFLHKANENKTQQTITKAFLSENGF

[4] = target: E. coli LS (Escherichia coli, UniProt P61714); settings: 37° C.; cited from earlier work
[5] = target: yeast LS (Saccharomyces cerevisiae, UniProt P50861); settings: 37° C.; cited from earlier work
[6] = target: T3, B. subtilis LS (Bacillus subtilis, UniProt P11998); settings: 37° C.; cited from earlier work
T3 sequence (P11998 whole entry, looked up): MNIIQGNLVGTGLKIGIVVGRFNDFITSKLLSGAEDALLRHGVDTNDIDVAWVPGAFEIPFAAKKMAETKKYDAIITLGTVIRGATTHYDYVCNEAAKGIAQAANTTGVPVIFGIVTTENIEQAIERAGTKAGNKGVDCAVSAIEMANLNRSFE

B1: recombinant spinach RS: purified recombinant mature spinach riboflavin synthase expressed in E. coli, without transit peptide (SEQ ID NO:8) (protein)
chain: MFTGIVEEIGRVKQMGYGEDGGFQLKVVGDIVLKDVNLGDSIAVNGTCLTVTEFDTKASEFTLGIAPETLRKTALMDLEPGSVVNLERALLPSTRMGGHFVQGHVDGTGEIVSLVEEGDSLWVKIKTSPEILRYIVPKGFIAIDGTSLTVVDVFDQELCFNIMLVAYTQQNVVIPLKKVGQKVNLEVDILGKYVERLLSSSGVLDPTKFT
- turnover number [1]: approximately 0.08 /sec

B2: S. cerevisiae RS: yeast riboflavin synthase, literature comparison (Santos et al.) (protein, UniProt P38145 1-238, looked up)
Riboflavin synthase: T1 sequence (P38145 1-238)
- reported turnover number [2]: 0.13 s⁻¹

B3: B. subtilis RS: B. subtilis riboflavin synthase, literature comparison (Bacher et al.) (protein, UniProt P16440 1-215, looked up)
Riboflavin synthase: T2 sequence (P16440 whole entry, looked up)
- reported turnover number [3]: 0.33 s⁻¹

B4: E. coli LS: purified E. coli lumazine synthase, literature comparison (protein, UniProt P61714 1-156, looked up)
6,7-dimethyl-8-ribityllumazine …: MNIIEANVATPDARVAITIARFNNFINDSLLEGAIDALKRIGQVKDENITVVWVPGAYELPLAAGALAKTGKYDAVIALGTVIRGGTAHFEYVAGGASNGLAHVAQDSEIPVAFGVLTTESIEQAIERAGTKAGNKGAEAALTALEMINVLKAIKA
- reported turnover number [4]: 0.06 s⁻¹

B5: yeast LS: purified yeast lumazine synthase, literature comparison (protein, UniProt P50861 1-169, looked up)
6,7-dimethyl-8-ribityllumazine …: MAVKGLGKPDQVYDGSKIRVGIIHARWNRVIIDALVKGAIERMASLGVEENNIIIETVPGSYELPWGTKRFVDRQAKLGKPLDVVIPIGVLIKGSTMHFEYISDSTTHALMNLQEKVDMPVIFGLLTCMTEEQALARAGIDEAHSMHNHGEDWGAAAVEMAVKFGKNAF
- reported turnover number [5]: 0.06 s⁻¹

B6: B. subtilis LS: purified B. subtilis lumazine synthase, literature comparison (protein, UniProt P11998 1-154, looked up)
6,7-dimethyl-8-ribityllumazine …: T3 sequence (P11998 whole entry, looked up)
- reported turnover number [6]: 0.06 s⁻¹
